# What was measured:
# [1] = tested on: CC[C@@]1([C@@H]2O[C@@H]([C@H]3O[C@@](O)(CO)[C@H](C)C[C@@H]3C)C[C@@H]2C)CC[C@H]([C@]2(C)CC[C@]3(C[C@H](O)[C@@H](C)[C@@H]([C@@H](C)[C@@H](OC)[C@H](C)C(=O)O)O3)O2)O1; test: purified protein, by the assay type; conditions: other: ATPase, 0–300 μM, 30 min, 37°C
# From the text: The Gentest ATPase assay (Corning, Germany) was used to investigate the binding kinetics of the panel of P-gp substrates against membranes constituted to display human MDR1, mouse Mdr1a, mouse Mdr1b and mouse Bcrp. The assays measure the accumulation of inorganic phosphate (absorbance at 800 nm) produced in the breakdown of ATP to ADP. […] The assays were used in accordance with the manufacturer’s protocol to calculate (GraphPad Prism) the Michaelis-Menten parameters Km and VMAX. For the assay test compounds were serially diluted to produce an assay concentration range of 0–300 μM with the kinetics of ATP turnover examined over 30 min at 37°C.
# [2] = tested on: CN1CCC[C@@H]1Cc1c[nH]c2ccc(CCS(=O)(=O)c3ccccc3)cc12; test: purified protein, by the assay type; conditions: other: ATPase, 0–300 μM, 30 min, 37°C
# Sequence of mouse Mdr1a (Mus musculus) (chain, as listed by the source): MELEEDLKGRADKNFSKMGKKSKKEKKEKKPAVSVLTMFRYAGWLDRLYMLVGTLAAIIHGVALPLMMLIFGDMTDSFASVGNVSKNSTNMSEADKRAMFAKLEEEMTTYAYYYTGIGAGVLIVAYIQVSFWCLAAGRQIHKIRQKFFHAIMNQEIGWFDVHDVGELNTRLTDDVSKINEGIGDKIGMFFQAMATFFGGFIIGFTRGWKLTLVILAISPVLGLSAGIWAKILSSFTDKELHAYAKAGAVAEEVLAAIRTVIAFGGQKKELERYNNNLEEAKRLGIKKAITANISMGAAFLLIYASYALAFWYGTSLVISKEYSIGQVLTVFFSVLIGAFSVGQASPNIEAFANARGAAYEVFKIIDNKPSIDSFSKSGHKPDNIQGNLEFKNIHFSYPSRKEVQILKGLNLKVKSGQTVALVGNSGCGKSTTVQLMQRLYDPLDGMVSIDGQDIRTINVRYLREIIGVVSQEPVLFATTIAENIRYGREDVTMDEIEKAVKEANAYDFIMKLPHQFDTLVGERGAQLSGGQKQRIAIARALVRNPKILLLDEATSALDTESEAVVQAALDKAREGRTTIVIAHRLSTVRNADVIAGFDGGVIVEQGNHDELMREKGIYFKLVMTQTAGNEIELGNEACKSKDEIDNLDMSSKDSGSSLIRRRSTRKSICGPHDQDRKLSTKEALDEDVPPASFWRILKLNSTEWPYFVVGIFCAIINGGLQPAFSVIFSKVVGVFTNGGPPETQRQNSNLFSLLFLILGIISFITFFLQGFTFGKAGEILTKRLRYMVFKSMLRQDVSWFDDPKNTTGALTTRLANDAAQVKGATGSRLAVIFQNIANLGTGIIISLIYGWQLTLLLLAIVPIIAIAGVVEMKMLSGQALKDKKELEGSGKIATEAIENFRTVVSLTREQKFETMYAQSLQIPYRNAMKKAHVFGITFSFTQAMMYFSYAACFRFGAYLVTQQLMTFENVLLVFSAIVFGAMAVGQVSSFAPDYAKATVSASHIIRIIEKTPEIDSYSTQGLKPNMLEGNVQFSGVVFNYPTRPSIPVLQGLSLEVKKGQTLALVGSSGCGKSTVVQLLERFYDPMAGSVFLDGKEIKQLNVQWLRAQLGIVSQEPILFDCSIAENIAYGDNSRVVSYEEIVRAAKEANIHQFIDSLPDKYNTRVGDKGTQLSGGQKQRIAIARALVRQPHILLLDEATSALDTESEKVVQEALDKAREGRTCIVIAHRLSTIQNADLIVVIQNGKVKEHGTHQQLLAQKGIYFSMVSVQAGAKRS
Substance,Km [1],Km [2],Vmax [2],Vmax [1]
mouse Mdr1b (Mus musculus),30.6 µM,58.1 µM,76.1 µM/min,
mouse Mdr1a (Mus musculus),22.0 µM,45.6 µM,32.6 µM/min,
human MDR1 (Homo sapiens),14.8 µM,91.5 µM,42.2 µM/min,15.6 µM/min

# Source: PMC5736782, “The Differential Absorption of a Series of P-Glycoprotein Substrates in Isolated Perfused Lungs from Mdr1a/1b Genetic Knockout Mice can be Attributed to Distinct Physico-Chemical Properties: an Insight into Predicting Transporter-Mediated, Pulmonary Specific Disposition” (Pharmaceutical Research, 2017)
